From publication PMC9638933
Where a chain is given by its changes, count along the chain named.

What was measured:
Assay in all cases: EMSA; 5 mM Mg2+
Conditions in all cases: protein: recombinant; tags: His (Ni-NTA purified; pMCSG7); chain copies: 2; label: 5' 6-FAM on strand 1; blunt
Ku D250A = biological target: T1, Ku D250A (Mycobacterium tuberculosis, UniProt P9WKD9 1-273, D250A)
T1 sequence: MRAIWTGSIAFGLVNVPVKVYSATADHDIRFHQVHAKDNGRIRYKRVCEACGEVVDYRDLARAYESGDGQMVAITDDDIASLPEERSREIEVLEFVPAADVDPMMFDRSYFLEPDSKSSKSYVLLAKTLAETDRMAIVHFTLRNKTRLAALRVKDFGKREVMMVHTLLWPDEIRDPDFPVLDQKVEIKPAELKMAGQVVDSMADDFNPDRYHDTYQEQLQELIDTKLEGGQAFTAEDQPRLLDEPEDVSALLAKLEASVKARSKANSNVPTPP

Ku L251A = biological target: T2, Ku L251A (Mycobacterium tuberculosis, UniProt P9WKD9 1-273, L251A)
T2 sequence: T1 sequence with A250D, L251A

Ku R262A = biological target: T3, Ku R262A (Mycobacterium tuberculosis, UniProt P9WKD9 1-273, R262A)
T3 sequence: T1 sequence with A250D, R262A

Ku D247A = biological target: T4, Ku D247A (Mycobacterium tuberculosis, UniProt P9WKD9 1-273, D247A)
T4 sequence: T1 sequence with D247A, A250D

Ku S258A = biological target: T5, Ku S258A (Mycobacterium tuberculosis, UniProt P9WKD9 1-273, S258A)
T5 sequence: T1 sequence with A250D, S258A

B1: 40 bp dsDNA (dsDNA)
DNA 1: CAGGGTAAGTGTGGAGGTGTAGGGAAGGGAATGTTGTCTG
DNA 2: CAGACAACATTCCCTTCCCTACACCTCCACACTTACCCTG
Kd (Ku D250A): 140 ± 10 nM | Kd (Ku L251A): 1300 ± 190 nM | Kd (Ku R262A): 140 ± 10 nM | Kd (Ku D247A): 160 ± 10 nM | Kd (Ku S258A): 1340 ± 290 nM
